Assay results taken from article PMC3929958 (Molecular cell, 2013).
Read-outs that look alike come from different tables or passages of the source.

How the values were obtained:
SEC = biological target: the molecule itself; experiment: SEC
SEC-MALS = biological target: the molecule itself; experiment: SEC-MALS
[1] = biological target: the molecule itself; experiment: fluorescence polarisation
[2] = biological target: the molecule itself; experiment: fluorescence polarisation; remark: listed apart in the source
[3] = biological target: the molecule itself; experiment: fluorescence polarisation; remark: listed apart in the source

B1: CARMA1 (8–302) (domain or fragment, human, UniProt Q9BXL7 8-302, looked up)
chain: MDDYMETLKDEEDALWENVECNRHMLSRYINPAKLTPYLRQCKVIDEQDEDEVLNAPMLPSKINRAGRLLDILHTKGQRGYVVFLESLEFYYPELYKLVTGKEPTRRFSTIVVEEGHEGLTHFLMNEVIKLQQQMKAKDLQRCELLARLRQLEDEKKQMTLTRVELLTFQERYYKMKEERDSYNDELVKVKDDNYNLAMRYAQLSEEKNMAVMRSRDLQLEIDQLKHRLNKMEEECKLERNQSLKLKNDIENRPKKEQVLELERENEMLKTKNQELQSIIQAGKRSLPDSDKAIL
SEC
  stoichiometry N: > 100

B2: CARMA1 (8–172) (domain or fragment, human, UniProt Q9BXL7 8-172, looked up)
chain: MDDYMETLKDEEDALWENVECNRHMLSRYINPAKLTPYLRQCKVIDEQDEDEVLNAPMLPSKINRAGRLLDILHTKGQRGYVVFLESLEFYYPELYKLVTGKEPTRRFSTIVVEEGHEGLTHFLMNEVIKLQQQMKAKDLQRCELLARLRQLEDEKKQMTLTRVE
SEC-MALS
  stoichiometry N: 3

B3: Bcl10 R36E/E50R/D51R triple mutant (natural protein)
chain: MEPTAPSLTEEDLTEVKKDALENLRVYLAEKIIAEEHFDHLRAKKILSRRRTEEISARTSSRKRAGKLLDYLQENPKGLDTLVESIRREKTQNFLIQKITDEVLKLRNIKLEHLKGLKCSSCEPFPDGATNNLSRSNSDESNFSEKLRASTVMYHPEGESSTTPFFSTNSSLNLPVLEVGRTENTIFSSTTLPRPGDPGAPPLPPDLQLEEEGTCANSSEMFLPLRSRTVSRQ
[1]
  polymerization activity relative to WT Bcl10: ~50%

B4: Alexa 488-labeled Bcl10 (C29A/C57A double mutant), MBP removed by TEV (natural protein, human, UniProt O95999 1-233, looked up)
chain: MEPTAPSLTEEDLTEVKKDALENLRVYLAEKIIAERHFDHLRAKKILSREDTEEISARTSSRKRAGKLLDYLQENPKGLDTLVESIRREKTQNFLIQKITDEVLKLRNIKLEHLKGLKCSSCEPFPDGATNNLSRSNSDESNFSEKLRASTVMYHPEGESSTTPFFSTNSSLNLPVLEVGRTENTIFSSTTLPRPGDPGAPPLPPDLQLEEEGTCANSSEMFLPLRSRTVSRQ
modifications: Alexa 488 label (site not stated)
[2]
  Kd: 800 nM
[3]
  Kd: 4300 nM
